In patent publication US20160017348A1 (published 2016):
Each block holds one binder with its values, some of them ahead of it.

How the values were obtained:
[1] = target: T1, H3(1-15)K9me2 peptide (UniProt P59226 2-16, dimethyl-lysine at K9); assay: ITC; FIG. 3B
T1 peptide: ARTKQTARKSTGGKA

[2] = target: T1, H3(1-15)K9me2 peptide; assay: ITC; FIG. 3A
[3] = target: H3K4me2; assay: ITC; FIG. 3B
[4] = target: H4K20me2; assay: ITC; FIG. 3B

Kd [1]: 1.9 µM | Kd [2]: 1.9 µM
B1: SHH1 SAWADEE domain (residues 125-258) (other)
chain: ADLAFEAKSARDYAWYDVSSFLTYRVLRTGELEVRVRFSGFDNRHDEWVNVKTSVRERSIPVEPSECGRVNVGDLLLCFQEREDQALYCDGHVLNIKRGIHDHARCNCVFLVRYELDNTEESLGLERICRRPEE

Kd [3]: 52.1 µM | Kd [4]: 80.6 µM
B2: SAWADEE domain (other)
chain: B1 chain
